Article PMC3417120 (Cancer research, 2012)

Target: p53, recombinant (UniProt P04637 1-393)
Test: BLI

p53, recombinant, sequence (P04637 whole entry): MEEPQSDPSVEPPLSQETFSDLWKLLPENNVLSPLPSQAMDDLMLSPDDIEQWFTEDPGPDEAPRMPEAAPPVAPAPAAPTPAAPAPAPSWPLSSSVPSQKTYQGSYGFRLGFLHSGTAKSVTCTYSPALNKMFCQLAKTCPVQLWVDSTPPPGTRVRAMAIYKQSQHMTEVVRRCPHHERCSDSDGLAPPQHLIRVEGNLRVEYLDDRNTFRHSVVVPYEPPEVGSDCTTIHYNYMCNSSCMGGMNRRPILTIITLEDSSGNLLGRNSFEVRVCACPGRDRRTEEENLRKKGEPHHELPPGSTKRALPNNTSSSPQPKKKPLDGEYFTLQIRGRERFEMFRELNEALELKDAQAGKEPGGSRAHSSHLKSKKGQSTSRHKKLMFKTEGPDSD

Kd: 14.5 nM
B1: recombinant HMGB1 B box (domain or fragment)
chain: KFKDPNAPKRPPSAFFLFCSEYRPKIKGEHPGLSIGDVAKKLGEMWNNTAADDKQPYEKKAAKLKEKYEKDIAAY
modifications: Limits not given; 88-162 is the usual B box construct of the source laboratory (Tracey).
